The record followed here is patent publication US20220403048A1 (CANCER RESEARCH TECHNOLOGY, published 2022).

Experiment [1] deals with T1, recombinant human monomeric ARG2 (human, UniProt P78540 23-354).
T1 sequence (looked up): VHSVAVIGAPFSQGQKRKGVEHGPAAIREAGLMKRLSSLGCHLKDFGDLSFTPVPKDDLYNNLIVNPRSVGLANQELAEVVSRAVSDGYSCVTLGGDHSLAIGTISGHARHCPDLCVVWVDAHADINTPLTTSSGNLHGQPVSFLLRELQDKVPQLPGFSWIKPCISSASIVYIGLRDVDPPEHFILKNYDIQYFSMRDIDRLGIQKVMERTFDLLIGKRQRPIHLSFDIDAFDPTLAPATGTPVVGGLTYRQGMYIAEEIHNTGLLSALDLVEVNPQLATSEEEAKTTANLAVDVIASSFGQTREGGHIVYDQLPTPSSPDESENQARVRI
Kind of experiment: cell-based or functional assay.

In experiment [2] the target is T2, biotinylated recombinant human trimeric ARG1 enzyme (Avi-huARG1-His10) (human, UniProt P05089 1-322, biotinylated in HTRF and streptavidin BLI assays).
T2 construct: also called Human ARG1; recombinant ARG1
T2 sequence: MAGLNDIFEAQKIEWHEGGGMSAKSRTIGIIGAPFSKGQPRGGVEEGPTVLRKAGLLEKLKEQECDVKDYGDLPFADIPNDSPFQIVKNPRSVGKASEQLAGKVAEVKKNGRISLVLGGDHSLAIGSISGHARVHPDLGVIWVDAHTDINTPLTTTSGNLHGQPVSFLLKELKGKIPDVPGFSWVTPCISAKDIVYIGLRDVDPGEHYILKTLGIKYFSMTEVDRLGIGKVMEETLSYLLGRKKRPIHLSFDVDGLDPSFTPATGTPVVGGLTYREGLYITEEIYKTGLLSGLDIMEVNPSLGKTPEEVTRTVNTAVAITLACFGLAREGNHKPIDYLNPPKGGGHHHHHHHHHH
Kind of experiment: BLI (OctetRED), His-tagged ligand on anti-His surface.

The target in experiment [3] is T3, biotinylated recombinant human trimeric ARG2 enzyme (Avi-huARG2-His10) (human, UniProt P78540 23-354, biotinylated).
T3 construct: also called avi-Arg2-His10; bio-ARG2
T3 chain: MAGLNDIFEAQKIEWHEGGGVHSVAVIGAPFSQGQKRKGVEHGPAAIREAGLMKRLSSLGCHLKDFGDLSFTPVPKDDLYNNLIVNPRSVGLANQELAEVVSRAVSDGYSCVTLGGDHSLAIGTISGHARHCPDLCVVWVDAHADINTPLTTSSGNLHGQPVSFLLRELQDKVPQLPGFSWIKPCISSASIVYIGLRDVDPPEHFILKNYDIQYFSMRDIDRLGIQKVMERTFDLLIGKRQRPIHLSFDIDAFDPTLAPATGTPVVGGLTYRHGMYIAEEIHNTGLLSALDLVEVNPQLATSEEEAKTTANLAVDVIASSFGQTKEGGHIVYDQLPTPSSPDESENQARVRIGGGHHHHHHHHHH
Put plainly: BLI (OctetRED) extended assay, bio-ARG2 on streptavidin, Fab as analyte, 1:1 fit. The procedure:
(§1) The affinities of the second-generation antibodies to human ARG2 were measured on the OctetRED system. A screening assay which stably captures His-tagged ARG2 as the ligand on an anti-His surface was utilised to screen the second-generation candidates as Fabs at an analyte range of 1.8 to 120 nM, with an association time of 5 minutes and a dissociation time of 10 minutes. Sensors were regenerated using 10 mM glycine pH 1.5 after each cycle. Based on this assay, six candidates with estimated affinities in the sub-nanomolar range were identified, and they were further profiled using an extended assay which is more suitable for antibodies of high affinities. In the extended assay, the association and dissociation times were extended to 10 and 40 minutes respectively, using a lower Fab analyte titration range of 0.47 to 30 nM, on a streptavidin surface which captures bio-ARG2 as the ligand. The sensorgrams were reference subtracted and fitted to the 1:1 binding model to estimate their binding affinities using the Octet analysis software.

In experiment [4] the target is T4, biotinylated recombinant cynomolgus monkey trimeric ARG2 enzyme (Avi-cynoARG2-His10) (cynomolgus monkey, UniProt P78540 23-354 (human entry), biotinylated).
T4 construct: also called cynomolgus ARG2
T4 chain: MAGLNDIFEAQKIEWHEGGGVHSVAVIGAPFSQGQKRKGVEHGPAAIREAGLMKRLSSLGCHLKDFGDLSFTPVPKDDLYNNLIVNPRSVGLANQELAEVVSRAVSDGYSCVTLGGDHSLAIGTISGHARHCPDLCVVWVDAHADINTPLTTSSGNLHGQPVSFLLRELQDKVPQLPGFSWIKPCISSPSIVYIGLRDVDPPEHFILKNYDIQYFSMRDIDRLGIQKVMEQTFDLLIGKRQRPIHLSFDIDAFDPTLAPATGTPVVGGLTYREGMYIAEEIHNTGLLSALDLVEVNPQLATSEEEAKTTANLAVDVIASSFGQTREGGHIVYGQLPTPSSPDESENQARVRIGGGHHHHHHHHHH
Kind of experiment: BLI (OctetRED) extended assay, biotinylated cyno ARG2 on streptavidin, Fab as analyte, 1:1 fit. As to the method:
as §1
The affinities of some of these antibodies to cynomolgus ARG2 were determined using the same assay, and the derived kinetic parameters are shown in Table 21.

In experiment [5] the target is T5, THP-1 lysate derived human trimeric ARG2 (human, UniProt P78540 23-354, limits assumed).
T5 sequence (looked up): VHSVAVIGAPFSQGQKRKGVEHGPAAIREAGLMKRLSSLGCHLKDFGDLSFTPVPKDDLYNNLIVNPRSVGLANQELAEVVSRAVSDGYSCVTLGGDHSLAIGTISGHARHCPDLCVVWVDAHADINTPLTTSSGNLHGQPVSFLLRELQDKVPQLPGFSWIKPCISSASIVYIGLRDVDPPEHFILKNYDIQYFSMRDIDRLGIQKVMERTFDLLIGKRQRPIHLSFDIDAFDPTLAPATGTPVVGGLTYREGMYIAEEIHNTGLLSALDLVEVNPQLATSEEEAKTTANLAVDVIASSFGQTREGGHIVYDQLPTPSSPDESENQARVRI
Kind of experiment: cell-based or functional assay.

In experiment [6] the target is T6, recombinant human trimeric ARG2 enzyme (construct not given) (human, UniProt P78540 23-354).
T6 sequence (looked up): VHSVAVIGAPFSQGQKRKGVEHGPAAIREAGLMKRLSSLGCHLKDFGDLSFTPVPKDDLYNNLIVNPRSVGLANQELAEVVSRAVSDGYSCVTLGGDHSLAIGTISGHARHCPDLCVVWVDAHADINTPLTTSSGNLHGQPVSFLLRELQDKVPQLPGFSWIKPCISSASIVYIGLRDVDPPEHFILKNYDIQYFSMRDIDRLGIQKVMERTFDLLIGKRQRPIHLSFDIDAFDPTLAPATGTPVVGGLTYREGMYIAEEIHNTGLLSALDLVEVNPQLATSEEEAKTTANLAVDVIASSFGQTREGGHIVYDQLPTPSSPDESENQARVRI
Kind of experiment: cell-based or functional assay.

Experiment [7] deals with T5, THP-1 lysate derived human trimeric ARG2. Kind of experiment: cell-based or functional assay. The source holds these as a separate data set.

B1: C0020065 recombinant human IgG1 (antibody, V domains shown)
VH: GVNLRESGGGVVQPGRSLRLSCAASGFTFSSYAMHWVRQAPGKGLEWVAVISYDGSNKYYVDSVKGRFTISRDNSKNTLYLQMNSLRAEDTAVYYCARDSSQLWFDYWGRGTLVTVSS
VL: QSVVTQPPSVSGAPGQRVTISCTGSSSNIGTGYDVHWYQQLPGTAPKLLIYGNSNRPSGVPDRFSGSKSGTSASLAITGLQAEDEADYYCQSYDSSLSGSVVFGGGTQLTVL
As for B1, in experiment [1], the “IC50 (read off the curve)” value was approximately 6 nM.

B2: C0021155 Fab (Fab, V domains shown)
VH: EVQLLESGGGLVQPGGSLRLSCEASGFTFRYDYHVWVRQAPGKGLEWVSAISGSGGSTYYADPVKGRFTISRDNSKNTLYLQMNSLRAEDTAVYYCARLRADLGLYMDLWGRGTLVTVSS
VL: RSVLTQPPSVSAAPGQKVTISCSGSSSNIGNHYVSWYQQLPGTAPKLLIYDTTVLSSGIPDRFSGSKSGTSATLGITGLQTGDEADYYCGTWDELTSNLVFGGGTRLTVL
notes: Human Fab
On to B2, for which, in experiment [2], the binding result was “no binding (tested: up to 120 nM Fab)”. Also, in experiment [3], the equilibrium dissociation constant (Kd) (usually the concentration at which binding is half-saturated) was determined as 0.358 nM; the koff (as a rule, the rate constant with which the complex falls apart) stood at 5.67e-05 s⁻¹; the kon – broadly, the second-order rate constant of association – was found to be 159000 M⁻¹ s⁻¹.

B3: C0021177 Fab (Fab, V domains shown)
VH: EVQLLESGGGLVQPGGSLRLSCAASGFTFRYEVAAWVRQAPGKGLEWVSAISGPAPKGYYADSVKGRFTISRDNSKNTLYLQMNSLRAEDTAVYYCARLRADLGLYMDLWGRGTLVTVSS
VL: QSELTQPPTASAAPGQKVTISCSGSSSNIGNHYVSWYQQLPGTAPKLLIYDTTVLSSGIPDRFSGSKSGTSATLGITGLQTGDEADYYCGTWDELTSNLVFGGGTKLTVL
notes: Human Fab
Regarding B3, the binding result in experiment [2] is “no binding (tested: up to 120 nM Fab)”. Also, in experiment [4], the Kd is 0.0754 nM, the koff came to 3.12e-05 s⁻¹ and the on-rate constant (kon) was 414000 M⁻¹ s⁻¹. Besides, in experiment [3], the Kd came out at 0.173 nM, the koff was found to be 3.51e-05 s⁻¹ and the kon was found to be 202000 M⁻¹ s⁻¹.

B4: C0021158 Fab (Fab, V domains shown)
VH: EVQLLESGGGLVQPGGSLRLSCAASGFTFRYEVAAWVRQAPGKGLEWVSAISGPIPKGYYADSVKGRFTISRDNSKNTLYLQMNSLRAEDTAVYYCARLRADLGLYMDLWGRGTLVTVSS
VL: QSVLTQPPSVSAAPGQKVTISCSGSSSNIGNHYVSWYQQLPGTAPKLLIYDNSERTAGVPDRFSGSKSGTSATLGITGLQTGDEADYYCGTWDELTSNLVFGGGTKLTVL
notes: Human Fab
Regarding B4, the binding result in experiment [2] is recorded as “no binding (tested: up to 120 nM Fab)”. In experiment [4], the Kd turned out to be 0.108 nM, the koff was determined as 4.64e-05 s⁻¹ and the kon is 429000 M⁻¹ s⁻¹. In addition, in experiment [3], the equilibrium dissociation constant (Kd) stood at 0.173 nM, the koff was found to be 4.54e-05 s⁻¹ and the on-rate (kon) is 262000 M⁻¹ s⁻¹.

B5: C0021181 Fab (Fab, V domains shown)
VH: EVQLLESGGGLVRPGGSLRLSCAASEFTFRYDYHVWVRQAPGKGLEWVSAISGSGGSTYYADSVKSRFTISRDNSKNTLYLQMNSLRAEDTAVYYCARLRADLGLYMDLWGRGTLVTVSS
VL: QSVLTQPPSVSAAPGQKVAVSCSGSSSNIGSHYVSWYQQLPGTAPKLLIYDNSERTSGIPDRFSGSKSGTSATLGITGLQTGDEADYYCGTWDELTSNLVFGGGTRLTVL
notes: Human Fab
Regarding B5, the binding result in experiment [2] is given as “no binding (tested: up to 120 nM Fab)”. In experiment [4], the Kd was 0.173 nM, the koff stood at 4.43e-05 s⁻¹ and the kon was 257000 M⁻¹ s⁻¹. Besides, in experiment [3], the equilibrium dissociation constant (Kd) was found to be 0.288 nM, the koff is 4.17e-05 s⁻¹ and the kon was 145000 M⁻¹ s⁻¹.

B6: C0020187 recombinant human IgG1 (antibody, V domains shown)
VH: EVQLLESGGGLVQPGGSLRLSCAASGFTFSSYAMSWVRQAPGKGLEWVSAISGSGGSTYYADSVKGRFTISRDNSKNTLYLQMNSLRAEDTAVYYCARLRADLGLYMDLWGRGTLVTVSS
VL: QSVLTQPPSVSAAPGQKVTISCSGSSSNIGNHYVSWYQQLPGTAPKLLIYDNSERPSGIPDRFSGSKSGTSATLGITGLQTGDEADYYCGTWDSSLSALVFGGGTKLTVL
Consider B6, for which the “IC50 (read off the curve)” value in experiment [1] is approximately 4 nM. Moreover, in experiment [5], the “THP-1 ARG2 EIA IC50” value was 649 nM.

B7: C0021158 recombinant human IgG1 (antibody, V domains shown)
VH: EVQLLESGGGLVQPGGSLRLSCAASGFTFRYEVAAWVRQAPGKGLEWVSAISGPIPKGYYADSVKGRFTISRDNSKNTLYLQMNSLRAEDTAVYYCARLRADLGLYMDLWGRGTLVTVSS
VL: QSVLTQPPSVSAAPGQKVTISCSGSSSNIGNHYVSWYQQLPGTAPKLLIYDNSERTAGVPDRFSGSKSGTSATLGITGLQTGDEADYYCGTWDELTSNLVFGGGTKLTVL
Take B7: in experiment [6], the “EC50, In Presence of rhARG2 (T cell proliferation)” value is 157 nM and the “Maximum % Proliferation, In Presence of rhARG2” value is 90%. The “THP-1 lysate ARG2 EIA IC50” value in experiment [7] was determined as 5.36 nM. Moreover, in experiment [5], the “THP-1 ARG2 EIA IC50” value was determined as 2.3 nM.

B8: C0021158-fgl2 recombinant human IgG1 (antibody, V domains shown)
VH: EVQLLESGGGLVQPGGSLRLSCAASGFTFRYEVAAWVRQAPGKGLEWVSAISGPIPKGYYADSVKGRFTISRDNSKNTLYLQMNSLRAEDTAVYYCARLRADLGLYMDLWGRGTLVTVSS
VL: QSVLTQPPSVSAAPGQKVTISCSGSSSNIGNHYVSWYQQLPGTAPKLLIYDNAERTAGIPDRFSGSKSGTSATLGITGLQTGDEADYYCGTWDELTSNLVFGGGTKLTVL
B8: the “THP-1 ARG2 EIA IC50” value in experiment [5] was found to be 3 nM.

B9: C0021180 Fab (Fab, V domains shown)
VH: EVQLLESGGGLVQPGGSLRLSCAASGFTFRYEVAAWVRQAPGKGLEWVSAISGPIPKGYYADSVKGRFTISRDNSKNTLYLQMNSLRAEDTAVYYCARLRADLGLYMDLWGRGTLVTVSS
VL: QSVLTQPPTVSAAPGRKVTISCSGSSSNIGDHHVSWYQQLPGAAPKLLIYDTDHMASGIPDRFSGSRSGTSATLGITGLQTGDEADYYCGTWDSSLSALVFGGGTKLTVL
notes: Human Fab
B9: the binding result in experiment [2] was “no binding (tested: up to 120 nM Fab)”. In experiment [4], the dissociation constant Kd was 0.353 nM, the koff is 0.000135 s⁻¹ and the association rate constant (kon) was 381000 M⁻¹ s⁻¹. Besides, in experiment [3], the Kd was found to be 0.437 nM, the off-rate (koff) came to 0.000122 s⁻¹ and the on-rate (kon) came out at 278000 M⁻¹ s⁻¹.
